± gives the standard deviation of the averaged measurements.
Test system: Saccharomyces cerevisiae
Assay: protein stability index of tFT-peptide fusion (C-terminal peptide) (PSI (0-1 scale)); higher = more stable (slower turnover)
Details: temperature: 30 C
Description: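 MPS profiling in S. cerevisiae of the yeast C-terminome library: the last 12 aa of each annotated ORF are fused to the C-terminus of a sfGFP-mCherry timer, after a GGGS linker. Cells are FACS-sorted into 8 mCherry/sfGFP bins and deep-sequenced. PSI runs from 0 (unstable) to 1 (stable); wild type and das1Δ backgrounds, two technical replicates each.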

[1] = genetic background: das1 deletion

Sequence | protein stability index [1] | protein stability index (genetic background: wild type)
SRVGRKVATLDQ [YAT2 C-terminal 12 aa] | 0.6994 ± 0.0069 | 0.694 ± 0.038
SSKGFFSKLGCC [YCK2 C-terminal 12 aa] | 0.692 ± 0.0099 | 0.677 ± 0.011
SSSNKSQRNGRY [AIR1 C-terminal 12 aa] | 0.712 ± 0.011 | 0.68967 ± 0.00054
SSSSTSVNKTLD [VIP1 C-terminal 12 aa] | 0.734 ± 0.04 | 0.707 ± 0.053
SSTTEETILVRK [RKM1 C-terminal 12 aa] | 0.689 ± 0.023 | 0.7025 ± 0.0051
STCIYLYTHNSM [YBR206W C-terminal 12 aa] | 0.672 ± 0.027 | 0.673 ± 0.023
STHIDHDKFSFF [CDC8 C-terminal 12 aa] | 0.7087 ± 0.0024 | 0.694 ± 0.021
STQHKSTTSFTQ [TGL4 C-terminal 12 aa] | 0.716 ± 0.035 | 0.655 ± 0.022
STTTVIQGEINK [LRG1 C-terminal 12 aa] | 0.671 ± 0.049 | 0.713 ± 0.036
SVESLMTQQDVE [BIO4 C-terminal 12 aa] | 0.691 ± 0.011 | 0.6941 ± 0.0037
SVLKRVRKLFGE [VMA7 C-terminal 12 aa] | 0.712 ± 0.004 | 0.684 ± 0.02
SWETKLKQNILE [CSN9 C-terminal 12 aa] | 0.7156 ± 0.0054 | 0.6441 ± 0.0042
SWISNNTNVPKK [ARF3 C-terminal 12 aa] | 0.6958 ± 0.0013 | 0.678 ± 0.011
SYFNTIMHNCKP [SET4 C-terminal 12 aa] | 0.72482 ± 0.00043 | 0.715 ± 0.0071
TAFLNKVYKRSK [ERG20 C-terminal 12 aa] | 0.692 ± 0.007 | 0.693 ± 0.043
TANKVELMANIV [MAK31 C-terminal 12 aa] | 0.6683 ± 0.0035 | 0.686 ± 0.041
TASFAGSKKTFD [NSR1 C-terminal 12 aa] | 0.706 ± 0.023 | 0.678 ± 0.012
TDDKEKLLKTLK [ACC1 C-terminal 12 aa] | 0.698 ± 0.016 | 0.734 ± 0.023
TDFENPNFRYTL [DAL5 C-terminal 12 aa] | 0.756 ± 0.039 | 0.794 ± 0.12
TDLPKWAQLDNS [PUS6 C-terminal 12 aa] | 0.729 ± 0.028 | 0.702 ± 0.026
TFCVYENLKHRL [FLX1 C-terminal 12 aa] | 0.741 ± 0.019 | 0.726 ± 0.017
TGGCSSSKFSLS [SKN1 C-terminal 12 aa] | 0.692 ± 0.021 | 0.68965 ± 0.00013
THFFSIEWAGFG [SEN34 C-terminal 12 aa] | 0.7116 ± 0.0045 | 0.725 ± 0.041
TIAAGKISEITQ [HBS1 C-terminal 12 aa] | 0.7292 ± 0.0066 | 0.697 ± 0.01
TIEEVKIPGLDI [MRPL50 C-terminal 12 aa] | 0.701 ± 0.0088 | 0.711 ± 0.0074
TISNWIQETKEV [STO1 C-terminal 12 aa] | 0.70591 ± 0.00011 | 0.7293 ± 0.0034
TKARTLGEGSVN [YDR476C C-terminal 12 aa] | 0.686 ± 0.032 | 0.674 ± 0.021
TKGEVATKPASY [MGA1 C-terminal 12 aa] | 0.702 ± 0.014 | 0.703 ± 0.018
TKHTPKYLLNTI [YNL179C C-terminal 12 aa] | 0.6926 ± 0.0048 | 0.6621 ± 0.00097
TKRLRKNKCIIM [RHO4 C-terminal 12 aa] | 0.743 ± 0.0024 | 0.702 ± 0.024

Reference: the supplement of paper PMC10724198
